Data taken from US20180171024A1.

Assays:
[1] = target: HLA-A2 on cells (tumor cell lines, normal primary cells, PBMCs) (human); assay: flow cytometry, 501A melanoma cells
[2] = target: HLA-A2 on cells (tumor cell lines, normal primary cells, PBMCs) (human); assay: flow cytometry, Fib cells
[3] = target: HLA-A2/TyrD-S8 on T2 cells (human); assay: flow cytometry, T2 cells loaded with TyrD S8 [..], 10 µg/ml
[4] = target: HLA-A2/TyrD-S5 on T2 cells (human); assay: flow cytometry, T2 cells loaded with TyrD S5 [..], 10 µg/ml
[5] = target: HLA-A2 on cells (tumor cell lines, normal primary cells, PBMCs) (human); assay: flow cytometry, H1703 cells, 10 µg/ml
[6] = target: HLA-A2 on cells (tumor cell lines, normal primary cells, PBMCs) (human); assay: flow cytometry, endothelial cells HUE-1, 10 µg/ml
[7] = target: HLA-A2/Tyrosinase369-377 complex on cells (human); assay: flow cytometry, T2 cells loaded with TYR peptide
[8] = target: Unloaded T2 (Homo sapiens); assay: flow cytometry, unloaded T2 cells, PE anti-mouse
[9] = target: HLA-A2 on cells (tumor cell lines, normal primary cells, PBMCs) (human); assay: flow cytometry, CCRF-SB cells, 10 µg/ml
[10] = target: HLA-A2 on cells (tumor cell lines, normal primary cells, PBMCs) (human); assay: flow cytometry, cardiac myocytes #6200-2, 10 µg/ml
[11] = target: HLA-A2/P68 on T2 cells (human); assay: flow cytometry, T2 cells loaded with P68 [..], 10 µg/ml
[12] = target: HLA-A2 on cells (tumor cell lines, normal primary cells, PBMCs) (human); assay: flow cytometry, WM-115 melanoma cells, 10 µg/ml
[13] = target: HLA-A2 on HLA-A2+/WT1+ SET2 cells (WT1 mRNA positive; WT1 126-134 peptide not detected by mass spectrometry of eluted HLA peptides); assay: flow cytometry on SET-2 cells (WT1 mRNA +)
[14] = target: HLA-A2/M1 on T2 cells (human); assay: flow cytometry, T2 cells loaded with M1 peptide
[15] = target: HLA-A2/TyrN on T2 cells (human); assay: flow cytometry, T2 cells loaded with TyrN [..], 10 µg/ml
[16] = target: HLA-A2 on cells (tumor cell lines, normal primary cells, PBMCs) (human); assay: flow cytometry, A375 melanoma cells, 10 µg/ml
[17] = target: HLA-A2 on other WT1 negative HLA-A2+ cells (other than 501, A498 and SKMEL; members not named); assay: flow cytometry on JVM-2 cells (WT1 mRNA -)

## BB7.2 (antibody)
[1]
  MFI: 389
[2]
  GeoMean: 613
[3]
  MFI relative to background: 539
[4]
  MFI relative to background: 546
[5]
  MFI: 351
[6]
  MFI: 133
[7]
  MFI: 2200
[8]
  MFI: 1050
[9]
  MFI: 902
[10]
  MFI: 733
[11]
  MFI relative to background: 1220
[12]
  MFI: 215
[13]
  MFI: 890
[14]
  MFI: 1990
[15]
  MFI relative to background: 483
[16]
  MFI: 196
[17]
  MFI: 238
